The text below walks through data of US20150218244A1.

The target of the assay is IL-10 receptor (IL-10R) on freshly isolated primary blood monocytes (human) (UniProt Q13651). Nature of the assay: cell-based or functional assay.
Chain of IL-10 receptor (IL-10R) on freshly isolated primary blood monocytes (human) (Q13651 22-578, chain 1 of 2): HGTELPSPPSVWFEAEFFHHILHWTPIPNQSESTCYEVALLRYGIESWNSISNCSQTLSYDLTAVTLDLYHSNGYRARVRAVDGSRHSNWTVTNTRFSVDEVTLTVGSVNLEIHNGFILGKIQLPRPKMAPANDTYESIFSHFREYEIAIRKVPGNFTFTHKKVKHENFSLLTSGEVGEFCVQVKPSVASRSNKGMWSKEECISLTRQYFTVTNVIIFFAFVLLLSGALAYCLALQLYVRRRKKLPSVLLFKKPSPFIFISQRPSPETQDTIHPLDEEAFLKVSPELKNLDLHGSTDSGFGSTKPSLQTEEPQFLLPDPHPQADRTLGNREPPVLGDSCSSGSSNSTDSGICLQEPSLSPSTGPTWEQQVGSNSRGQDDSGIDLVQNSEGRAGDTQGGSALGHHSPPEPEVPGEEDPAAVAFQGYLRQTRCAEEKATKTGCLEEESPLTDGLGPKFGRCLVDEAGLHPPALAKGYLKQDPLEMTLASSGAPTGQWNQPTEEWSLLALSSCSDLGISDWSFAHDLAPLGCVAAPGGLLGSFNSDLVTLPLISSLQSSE
Chain of IL-10 receptor (IL-10R) on freshly isolated primary blood monocytes (human) (Q08334 20-325, chain 2 of 2, further chain): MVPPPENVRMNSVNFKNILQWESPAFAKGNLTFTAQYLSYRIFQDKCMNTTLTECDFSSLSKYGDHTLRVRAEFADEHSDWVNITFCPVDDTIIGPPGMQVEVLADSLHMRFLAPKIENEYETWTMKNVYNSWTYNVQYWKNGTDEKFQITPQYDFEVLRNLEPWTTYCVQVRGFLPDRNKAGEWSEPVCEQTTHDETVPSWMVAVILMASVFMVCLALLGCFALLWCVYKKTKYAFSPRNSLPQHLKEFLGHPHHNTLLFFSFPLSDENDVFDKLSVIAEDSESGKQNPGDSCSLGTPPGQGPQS

“recombinant wild type human IL-10 (from UniProt P22301 19-178) (ligand)” had an EC50 [nM] pSTAT3 induction of 0.017 nM; an EC50 [nM] pSTAT3 induction, Donor 1 of 0.029 nM; an EC50 [nM] pSTAT3 induction, Donor 2 of 0.019 nM; an EC50 [nM] pSTAT3 induction, Donor 3 of 0.021 nM.
